Measurements taken from the supplement of paper PMC10567573.
± gives the standard deviation.

Assay: protein stability index of a GFP-peptide fusion (GPS, HEK-293T) (PSI 1-6); higher = more stable
Details: c terminus: a fixed tail appended
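Note: 24-mer peptide tiles fused after GFP, lentivirally expressed, FACS-sorted into six equal bins by GFP/DsRed ratio, decoded by Illumina sequencing, PSI is the read-weighted mean bin number.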

Sequence	protein stability index (treatment: DMSO)	protein stability index (treatment: MLN4924 1 uM, 8 h)
GNATLLRIIYQNKCMRNGPNALIA [EDNRA]	2.66 ± 0.79	2.51 ± 0.32
PGSMSEVQELCKQLHAKIDAAEEE [TNNI2]	5.38 ± 0.27	5.36 ± 0.11
TQGQEKMMMMGPKEEEQSCEYETR [ZNF232]	5.42 ± 0.38	5.59 ± 0.16
VSPIQIDGAGRTWQDSDTVKLLVD [TOR1AIP2]	3.92 ± 0.11	3.75 ± 0.32
HYGGVVSLIPLILDLMKEWIAHSE [SPACA9]	3.02 ± 0.46	2.23 ± 0.46
RVLFIKDVIGDEICCWSFYGQGRK [KCTD10]	1.89 ± 0.51	2.38 ± 0.23
RSEALAVDGAGKPGAEEAQDPEGK [CHGA]	5.61 ± 0.15	5.561 ± 0.045
HVMNPLETLSITNCRLSEGDVMHL [PRAME]	2.54 ± 0.79	2.4 ± 0.24
EDQEEWHAQVVEELSNFKSQKVLG [ZBED1]	5.41 ± 0.21	5.54 ± 0.21
IKKIEEHAPGVPKILVGNRLHLAF [RAB40A]	2.39 ± 0.5	2.27 ± 0.2
ALLIVDSATALYRTDYSGRGELSA [RAD51]	2.17 ± 0.33	2.27 ± 0.42
ASESEHIPKPQSTGWFGGGFTSYL [MIA2]	2.4 ± 0.37	2.69 ± 0.34
GDVMFTGTADGRVVKLENGEIETI [APMAP]	4.73 ± 0.51	5.06 ± 0.29
AFERQQVENRVVEEAKGLLDKVKD [ZBED1]	4.97 ± 0.38	5.61 ± 0.19
CMVGYDMGATRCDFTLSKTNMARI [CPXM2]	2.24 ± 0.6	2.1 ± 0.22
KAMFSGRVEVLTDAGGWVLIDRSG [KCTD13]	2.19 ± 0.21	2.48 ± 0.47
MYLSPPSIHCLGPIKLELLEPKAN [VPS39]	2.26 ± 0.38	2.41 ± 0.39
GTVHCQIVSTQITRPSGNNGNRRR [PHTF1]	4.25 ± 0.18	4.51 ± 0.21
RASPTRTAPLPMPEGPEPAAPGKQ [ELOA2]	5.4 ± 0.14	5.66 ± 0.1
FSQETVMKFVPRYSLVLELSDSGA [APMAP]	2.75 ± 0.71	2.09 ± 0.27
TPTPVAAALDACSGNDPFAPSEGS [SNAP91]	5.29 ± 0.32	5.47 ± 0.24
KNIIHKTSGKRYVYRFVCDLQNLL [ETS2]	2.96 ± 0.48	2.69 ± 0.6
EPSSDPSLLGEPCAGPGFTHNIAH [SPAG8]	4.65 ± 0.074	4.52 ± 0.22

Sequence	protein stability index (treatment: DMSO)	protein stability index (treatment: MLN4924 1 uM, 8 h)
CSSSDDDTDVDMEGLRRRRGREAG [PBXIP1]	5.3 ± 0.28	5.26 ± 0.21
ASSASLEPMWSGSTMRRMALRPTA [EMID1]	3.43 ± 0.23	3.64 ± 0.43
YANAVLQALSNVPPLRNYFLEEDN [USP39]	2.19 ± 0.072	2.12 ± 0.24
CLPPEPSPDDPESVKIIFKLPNDS [FAF2]	4.76 ± 0.17	4.82 ± 0.13
IFNHERFFWHLTLPERRGTCADRD [CASP6]	2.6 ± 0.21	2.93 ± 0.27
CVQCGKSYSQSSNLFRHQRRHNAE [ZNF24]	4 ± 0.16	4.42 ± 0.42
SYSREHEGRLRYPSRREPPPRRSR [CLK3]	5.28 ± 0.2	5.01 ± 0.48
TRSCSSASSRSQQSSKRSSRSVED [CLK3]	5.047 ± 0.044	5.02 ± 0.22
YRVSDVTKAGHSLELIEPLIKFQV [VDR]	1.99 ± 0.4	2.12 ± 0.21
ERYEIDSLIGKGSFGQVVKAYDHQ [DYRK1B]	3.92 ± 0.21	4.02 ± 0.17
SSTCGQLASYPLALVRTRMQAQAS [SLC25A25]	2.74 ± 0.23	3 ± 0.1
SKTEELNREVATNSELVQSGKSEI [KRT17]	5.34 ± 0.22	5.06 ± 0.1
IGGNHLKGFSHLDVMLVECYDPKG [KLHL14]	2.11 ± 0.47	2.21 ± 0.34
KWLDMLNNWDKWMAKKHKKIRLRC [TBC1D10A]	2.62 ± 0.72	2.27 ± 0.31
LIGGLEAQLSELRCEMEAQNQEYK [KRT15]	4.1 ± 0.15	4.52 ± 0.44
GEGVDKLSLPARNQAGYFMLPTVI [ALDH8A1]	2.19 ± 0.18	2.36 ± 0.18
KAKFCSTVANDVMLRTGLGVIRMW [NETO1]	2.7 ± 0.51	2.27 ± 0.29
EHIYDLRSLENYHFVDEHGKDQGI [CLINT1]	4.1 ± 0.25	4.08 ± 0.1
VPEEEQAANKGEEKKDDENIPMET [SMARCE1]	5.63 ± 0.19	5.68 ± 0.27
PPKVKAEDGMQCLQLKETLATQEP [DLC1]	5.3 ± 0.17	5.16 ± 0.2
RDFAETHNCVDLMQAAEVFSQKHF [KLHL12]	3.31 ± 0.23	3.21 ± 0.49
TTLDEFPLTRLGQLKACTNFDDIL [KCNG1]	2.99 ± 0.26	2.92 ± 0.22
